Publication PMC5338832 (PLoS Pathogens, 2017)

T1: T117v2 epitope-scaffold (synthetic construct (designed scaffold …))
T1 construct: also called T117v2 scaffold; scaffolded MPER construct; source: expressed and purified as previously described [35]
T1 chain: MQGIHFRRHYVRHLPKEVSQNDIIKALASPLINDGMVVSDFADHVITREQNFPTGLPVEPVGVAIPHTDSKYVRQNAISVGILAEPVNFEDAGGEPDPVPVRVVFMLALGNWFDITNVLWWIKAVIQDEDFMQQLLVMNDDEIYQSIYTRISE


Columns and labels:
T117v2 epitope-scaffold [1] = target: T1, T117v2 epitope-scaffold; test: SPR; ProteOn XPR36, GLC chip with amine-coupled capture antibody (Human Antibody Capture Kit) for ligand capture; 1x HBS-EP+ pH 7.4 with 1 mg/ml BSA; Langmuir model; Table 1 heads the IgGs as 'Analyte'; conditions: both partners purified
T117v2 epitope-scaffold [2] = target: T1, T117v2 epitope-scaffold; test: SPR; conditions: both partners purified

Binder	Kd (T117v2 epitope-scaffold [1]) [nM]	koff (T117v2 epitope-scaffold [1]) [s⁻¹]	kon (T117v2 epitope-scaffold [1]) [M⁻¹ s⁻¹]	Kd (T117v2 epitope-scaffold [2]) [nM]	koff (T117v2 epitope-scaffold [2]) [s⁻¹]	kon (T117v2 epitope-scaffold [2]) [M⁻¹ s⁻¹]
10E8 IgG mutant 3 (antibody, V domains shown, IgG; also called 10E8 mut 3; copies: 2 + 2) VH: EVQLVESGGGLVKPGGSLRLSCSASGFDFDNAWMTWVRQPPGKGLEWVGRITGPGEGWSVDYAAPVEGRFTISRLNSINFLYLEMNNLRMEDSGLYFCARTGKYYDFWSGYPPGEEYFQDWGRGTLVTVSS VL: SYELTQETGVSVALGDTVTITCEGDSLESHYASWYQKKPGQAPILLFYGDDNRPSGVPDRFSGDADGNEASLTIDGAQAEDDAEYYCSSRDKSGSRLSVFGGGTKLTVL	0.379	0.000211	559000	–	–	–
10E8 IgG mutant 1 (antibody, V domains shown, also called 10E8 mut 1; copies: 2 + 2) VH: EVQLVESGGGLVKPGGSLRLSCSASGFDFDNAWMTWVRQPPGKGLEWVGRITGPGEGWSVDYAAPVEGRFTISRLNSINFLYLEMNNLRMEDSGLYFCARTGKYYDFWSGYPPGEEYFQDWGRGTLVTVSS VL: SYELTQETGVSVALGQTVTITCQGDSLRSHYASWYQKKPGQAPILLFYGKNNRPSGVPDRFSGSASGNTASLTISGAQAEDDAEYYCSSRDKSGSRLSVFGGGTKLTVL	0.0112	4e-05	3.57e+06	–	–	–
10E8 IgG mutant 5 (antibody, V domains shown, IgG; also called 10E8 mut 5; copies: 2 + 2) VH: EVQLVESGGGLVKPGGSLRLSCSASGFDFDNAWMTWVRQPPGKGLEWVGRITGPGEGWSVDYAAPVEGRFTISRLNSINFLYLEMNNLRMEDSGLYFCARTGKYYDFWSGYPPGEEYFQDWGRGTLVTVSS VL: SYELTQETGVSVALGRTVTITCRGDSLASHAASWYQKKPGQAPILLFYGKNNRPSGVPDRFSGSASGNRASLTISGAQAEDDAEYYCSSRDKSGSRLSVFGGGTKLTVL	0.123	0.00016	1.3e+06	–	–	–
10E8 IgG mutant 2 (antibody, V domains shown, IgG; also called 10E8 mut 2; copies: 2 + 2) VH: EVQLVESGGGLVKPGGSLRLSCSASGFDFDNAWMTWVRQPPGKGLEWVGRITGPGEGWSVDYAAPVEGRFTISRLNSINFLYLEMNNLRMEDSGLYFCARTGKYYDFWSGYPPGEEYFQDWGRGTLVTVSS VL: SYELTQETGVSVALGDTVTITCEGDSLESHYASWYQKKPGQAPILLFYGKNNRPSGVPDRFSGSASGNEASLTISGAQAEDDAEYYCSSRDKSGSRLSVFGGGTKLTVL	–	–	–	0.0164	4.6e-05	2.8e+06
